Where only a bound is given, the exact number is not on record here.

Common to all, as to assay: cell-based or functional assay
For assay [1], the target named is MCP-1RB (monocyte chemoattractant protein-1 receptor B) (human) (UniProt P41597).
Assay [2] has as its target MIP-1α/RANTES receptor (Homo sapiens (Human)) (UniProt P32246).
The target of assay [3] is MCP-1RA (monocyte chemoattractant protein-1 receptor A) (human) (UniProt P41597).
Sequence of MCP-1RA (monocyte chemoattractant protein-1 receptor A) (human) (P41597 whole entry): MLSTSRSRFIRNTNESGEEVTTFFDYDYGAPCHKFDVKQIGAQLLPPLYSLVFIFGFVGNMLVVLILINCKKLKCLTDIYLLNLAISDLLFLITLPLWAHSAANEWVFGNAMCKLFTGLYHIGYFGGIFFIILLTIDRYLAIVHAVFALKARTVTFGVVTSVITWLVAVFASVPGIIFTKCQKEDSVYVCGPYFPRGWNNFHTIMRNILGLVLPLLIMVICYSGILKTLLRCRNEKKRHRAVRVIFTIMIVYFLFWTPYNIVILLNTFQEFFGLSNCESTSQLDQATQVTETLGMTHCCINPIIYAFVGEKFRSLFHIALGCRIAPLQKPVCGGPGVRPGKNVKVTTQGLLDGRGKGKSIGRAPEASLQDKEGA

Sequence of MCP-1RB (monocyte chemoattractant protein-1 receptor B) (human) (P41597 other isoform, or with tags, fused parts or gaps): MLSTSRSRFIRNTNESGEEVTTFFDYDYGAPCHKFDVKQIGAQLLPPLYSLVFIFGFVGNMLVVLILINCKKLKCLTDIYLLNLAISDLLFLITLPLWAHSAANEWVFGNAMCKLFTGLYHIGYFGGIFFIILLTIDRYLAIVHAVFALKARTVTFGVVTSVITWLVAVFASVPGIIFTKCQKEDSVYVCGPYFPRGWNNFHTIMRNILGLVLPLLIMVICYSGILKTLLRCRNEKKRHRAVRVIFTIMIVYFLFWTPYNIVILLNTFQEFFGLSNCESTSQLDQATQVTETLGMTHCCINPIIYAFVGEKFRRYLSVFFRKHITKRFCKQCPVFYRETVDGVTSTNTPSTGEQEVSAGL
Sequence of MIP-1α/RANTES receptor (Homo sapiens (Human)) (P32246 whole entry): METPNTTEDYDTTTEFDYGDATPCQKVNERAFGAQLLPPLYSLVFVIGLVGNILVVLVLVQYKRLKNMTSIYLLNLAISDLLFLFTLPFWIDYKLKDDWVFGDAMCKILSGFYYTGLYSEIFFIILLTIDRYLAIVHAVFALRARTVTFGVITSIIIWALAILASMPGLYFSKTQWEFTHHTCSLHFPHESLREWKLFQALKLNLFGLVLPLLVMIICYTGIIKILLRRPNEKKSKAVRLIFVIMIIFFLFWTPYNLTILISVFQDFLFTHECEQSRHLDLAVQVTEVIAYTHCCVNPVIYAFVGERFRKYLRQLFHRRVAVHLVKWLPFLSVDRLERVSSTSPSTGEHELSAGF

On to “MIP-1α (from UniProt P10147 27-92) (ligand)”, for which the IC50(nM), Inhibition of Adenylyl Cyclase, 293 cells stably expressing MCP-1RB in assay [1] was more than 1000 nM.

Consider “MIP-1β (from UniProt P13236 24-92) (ligand)”, for which, in assay [1], the IC50(nM), Inhibition of Adenylyl Cyclase, 293 cells stably expressing MCP-1RB is more than 1000 nM.

Take “MCP-1 (monocyte chemoattractant protein-1) (from UniProt P13500 24-99) (ligand)”: the IC50(nM), Inhibition of Adenylyl Cyclase, 293 cells stably expressing the MIP-1α/RANTES receptor in assay [2] came out at 820 nM. In assay [3], this substance returned an EC50, 45Ca efflux in Xenopus oocytes injected with receptor cRNA of 15 nM. Besides, in assay [1], the EC50, 45Ca efflux in Xenopus oocytes injected with receptor cRNA came out at 15 nM; the EC50, intracellular calcium mobilization (indo-1) in stably transfected MCP-1RB/293 cells was found to be 3.4 nM; the IC50(nM), Inhibition of Adenylyl Cyclase, 293 cells stably expressing MCP-1RB stood at 0.09 nM; the Selectivity (MCP-1RB against the MIP-1α/RANTES receptor, from the adenylyl cyclase IC50s) is more than 9000 fold. In assay [1], this substance returned a block of the forskolin-induced increase of cAMP in MCP-1RB-transfected 293 cells of 78% and a reduction of basal cAMP accumulation in MCP-1RB-transfected 293 cells of 55%.

In the case of “RANTES (from UniProt P13501 24-91) (ligand)”, the IC50(nM), Inhibition of Adenylyl Cyclase, 293 cells stably expressing MCP-1RB in assay [1] is more than 1000 nM.

In turn, “Gro-α (from UniProt P09341 35-107) (ligand)” yielded an IC50(nM), Inhibition of Adenylyl Cyclase, 293 cells stably expressing the MIP-1α/RANTES receptor in assay [2] of more than 1000 nM. Moreover, in assay [1], the IC50(nM), Inhibition of Adenylyl Cyclase, 293 cells stably expressing MCP-1RB is more than 1000 nM.

As to “IL-8 (interleukin-8) (from UniProt P10145 28-99) (ligand)”, the IC50(nM), Inhibition of Adenylyl Cyclase, 293 cells stably expressing MCP-1RB in assay [1] was more than 1000 nM.

For the origin of these results see patent US20040223968A1.
